What was measured:
Assay type in all cases: cell-based, mice
VEGFD = assay: qRT-PCR analysis of VEGFD expression in hippocampal neurons; details: hippocampal neurons infected with rAAV
Description: Total RNA was isolated at DIV10 to DIV13 from hippocampal primary neuron cultures or isolated brain tissues with Rneasy Mini Kit (Qiagen, Hilden, Germany) including an optional Dnase I treatment at room temperature for 15 min according to manufacturer's instructions (Qiagen). 1.2 μg of extracted RNA was reverse transcribed into first strand cDNA using High Capacity cDNA Reverse Transcription kit (Applied Biosystems, Foster City, Calif.).
Quantitative reverse transcriptase PCR (qRT-PCR) was done on an ABI7300 thermal cycler using Universal qRT-PCR master mix with TaqMan Gene Expression Assays for the indicated genes (Applied Biosystems). The following TaqMan Gene Expression Assays were used in this study: Gusb (Mm00446953_m1), cFos (Mm00487425_m1), VEGFD (Mm00438965_m1), VEGFC (Mm01202432_m1), VEGF (Mm01281449_m1), VEGFR3 (Mm01292618_m1), beta-actin (Mm00607939_s1), beta-2 microglobulin (Mm00437762_m1), CBP (Mm01342435_m1), p38 MAPK alpha (Mm00442497_m1), p38 MAPK beta (Mm00440955_m1). Expression of target genes was normalized against the expression of Gusb as endogenous control gene. Data were derived from at least 5 independent experiments.

hippocampal cultures = assay: MEA recordings of spontaneous network activity; details: rAAV-shVEGFD infected cultures, 100 ng/ml rVEGFD added to media
Description: MEA recordings were done as known in the art. From DIV7 to DIV13, recordings of spontaneous network activity were acquired for 5 min once per day.

ERK1/2 = assay: Immunoblot analysis with phospho-specific antibodies, ERK1/2; details: rVEGFD treatment for various lengths of time
Description: (§1) A: Immunoblot analysis using phosphor-specific antibodies of hippocampal neurons with or without rVEGFD treatment for the indicated times. Tubulin was used as loading control.
(§2) B: Quantification of the experiment shown in A. rVEGFD treatment causes a significant increase of CREB, ERK1/2 and p38 MAP kinase phosphorylation. All values are expressed as percentage of untreated controls (n=5).
(§3) Next, the signaling mechanisms through which VEGFD controls dendrite architecture were determined. Cell lysates from hippocampal neurons treated with rVEGFD for various lengths of time were subjected to immunoblot analysis using a large panel of antibodies that are specific for the phosphorylated (i.e. activated) forms of signaling molecules (FIG. 9). […] Therefore, it was determined whether p38 MAPK mediates the effects of VEGFD on dendrite geometry. […] Because SB203580 inhibits the alpha and beta isoforms of p38 MAPK, the role of p38 MAPK in VEGFD-mediated dendritic arborization by RNAi was further investigated. Two pAAVs, shp38α and shp38β, that contain expression cassettes for shRNAs specific for the alpha and the beta isoform, respectively, of p38 MAPK, were generated.

p38 MAP kinase = assay: Immunoblot analysis with phospho-specific antibodies, p38 MAP kinase; details: rVEGFD treatment for various lengths of time
Description: as §1, §2, §3

hippocampal neurons = assay: Morphometric analyses (total dendritic length, Sholl analysis, spine density) of cultured hippocampal neurons
Description: Hippocampal neurons from newborn C57BL/6 mice were cultured as known in the art. Experiments were done after a culturing period of 10 to 14 days in vitro (DIV). DNA transfection was done on DIV8 using Lipofectamine 2000 (Invitrogen, San Diego, Calif.). For the studies on dendrite morphology, neurons were analyzed 4-5 days after transfection.
For 3D Sholl Analysis, total dendritic length and spine morphology were calculated using Object-Image freeware software with a specific set of macros (written by Dr. E. Ruthazer, McGill University, Quebec). Briefly, a z-Stack acquisition was imported, calibrated in Object-Image and manually traced. Total dendritic length was then computed. For Sholl analysis, the shell interval was set at 5 μm. All analyses were performed blind. In all in vitro experiments, for each condition, a minimum of 12 neurons from three independent preparations was analyzed. For the Golgi staining quantifications of 20 neurons for each condition from 4 different injected animals per viral construct were traced and analyzed.
Hippocampal neurons were fixed with 4% paraformaldehyde at room temperature for 20 min. For immunostaining, primary and secondary antibodies were applied in GDB buffer (30 mM phosphate buffer [pH7.4] containing 0.2% gelatin, 0.5% Triton X-100, and 0.9 M NaCl). For the morphometric analyses, fluorescence images were acquired using a confocal laser-scanning microscope TCS SP2 (Leica, Mannheim, Germany) equipped with an inverted fluorescence microscope DM IRE2 (Leica) and Leica confocal scan software. All images were obtained with sequential acquisition setting at a resolution of 1024×1024 pixels. Each image was a z series projection of images taken at 1 μm intervals.

CREB = assay: Immunoblot analysis with phospho-specific antibodies, CREB; details: rVEGFD treatment for various lengths of time
Description: as §1, §2, §3

| Molecule | VEGFD mRNA levels (VEGFD) | rescue of decreased spike frequency (hippocampal cultures) | ERK1/2 phosphorylation (ERK1/2) | activation of p38 MAPK (p38 MAP kinase) | dendrite length or complexity (hippocampal neurons; neurons transfected with pAAV-shSCR and pAAV-emptymC, rVEGFD 100 ng/ml 3 days) | neuronal morphology (hippocampal neurons; neurons without nuclear calcium signaling blockade) | effect on reduction of dendrite length and complexity caused by shVEGFD (hippocampal neurons; pAAV-shVEGFD transfected neurons, rVEGFD 100 ng/ml 3 days or co-transfection) | restoration of spine density in CaMBP4 or CaMKIVK75E expressing neurons (hippocampal neurons; rVEGFD 100 ng/ml 3 days or VEGFD-HA expression) | rescue of reduction in dendrite length and complexity caused by CaMBP4 or CaMKIVK75E (hippocampal neurons; recombinant factors 100 ng/ml for 3 days, or VEGFD-HA expression) | CREB phosphorylation (CREB) |
| --- | --- | --- | --- | --- | --- | --- | --- | --- | --- | --- |
| CaMKIVK75E: dominant negative mutant of CaMKIV (protein, UniProt P08414 1-469, looked up, variant K75E) Calcium/calmodulin-dependent …: MLKVTVPSCPSSPCSSVTASTENLVPDYWIDGSNRDPLGDFFEVESELGRGATSIVYRCKQKGTQKPYALKVLKETVDKKIVRTEIGVLLRLSHPNIIKLKEIFETPTEISLVLELVTGGELFDRIVEKGYYSERDARDAVKQILEAVAYLHENGIVHRDLKPENLLYATPAPDAPLKIADFGLSKIVEHQVLMKTVCGTPGYCAPEILRGCAYGPEVDMWSVGIITYILLCGFEPFYDERGDQFMFRRILNCEYYFISPWWDEVSLNAKDLVKKLIVLDPKKRLTTFQALQHPWVTGKAANFVHMDTAQKKLQEFNARRKLKAAVKAVVASSRLGSASSSHTSIQENHKASSDPPSTQDAKDSTDLLGKKMQEEDQEEDQVEAEASADEMRKLQSEEVEKDAGVKEEETSSMVPQDPEDELETDDPEMKRDSEEKLKSVEEEMDPMTEEEAPDAGLGVPQQDAIQPEY | significantly lower | – | – | – | – | – | – | – | – | – |
| rVEGFD: recombinant mouse VEGFD (R&D Systems) (protein) FAATFYDTETLKVIDEEWQRTQCSPRETCVEVASELGKTTNTFFKPPCVNVFRCGGCCNEEGVMCMNTSTSYISKQLFEISVPLTSVPELVPVKIANHTGCKCLPTGPRHPYSIIRR | – | partly rescued | significant but moderate | very robust | did not affect dendrite length or complexity | no detectable effect on neuronal morphology | reversed | failed to restore normal spine density | rescued the reduction in dendrite length and complexity | significant but moderate |
